Assay results from US20260098059A1 (ENDOMET BIOSCIENCES, published 2026).
Several values for one entry are separate records, joined by “and”; a condition that tells them apart may be missing. Equal values may be shown once. Each block holds one binder with its values, some of them ahead of it. [ ]: non-standard residue; d: D form. The star is where a group is joined. NMeW = CN[C@@H](Cc1c[nH]c2ccccc12)C(=O)O; Stearoyl = CCCCCCCCCCCCCCCCCC(=O)*; Palmitoyl = CCCCCCCCCCCCCCCC(=O)*; αMeV = CC(C)[C@](C)(N)C(=O)O; αMeS = C[C@](N)(CO)C(=O)O; GABA = NCCCC(=O)O; βAla = NCCC(=O)O

Target: T1, β-catenin (UniProt P35222 134-665, limits assumed, biotinylated in the SPR and plate assays)
T1 sequence (looked up): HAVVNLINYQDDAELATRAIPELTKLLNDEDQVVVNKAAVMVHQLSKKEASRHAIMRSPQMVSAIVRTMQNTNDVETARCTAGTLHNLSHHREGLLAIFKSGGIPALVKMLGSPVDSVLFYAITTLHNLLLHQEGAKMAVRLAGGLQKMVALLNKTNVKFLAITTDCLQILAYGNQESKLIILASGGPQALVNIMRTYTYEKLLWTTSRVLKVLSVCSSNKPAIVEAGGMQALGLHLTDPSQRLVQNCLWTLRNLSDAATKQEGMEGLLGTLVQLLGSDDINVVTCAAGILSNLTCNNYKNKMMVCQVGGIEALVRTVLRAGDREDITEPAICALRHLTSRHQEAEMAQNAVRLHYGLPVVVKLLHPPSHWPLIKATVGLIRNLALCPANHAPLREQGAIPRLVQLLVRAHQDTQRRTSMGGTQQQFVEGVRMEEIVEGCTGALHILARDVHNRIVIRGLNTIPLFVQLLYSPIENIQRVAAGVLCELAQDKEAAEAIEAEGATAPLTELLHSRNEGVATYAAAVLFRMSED
Experiment: cell-based or functional assay

Wnt Reporter EC50: > 7.5 µM and ≤ 15 µM
B1: SEQ ID NO: 400 (peptide)
peptide: {Palmitoyl-GABA}-W[NMeW]E[αMeS]ILDEH[αMeV]QRVW-OH

Wnt Reporter EC50: ≤ 7.5 µM
B2: SEQ ID NO: 57 (peptide)
peptide: H-MSRMWFLISFWEG-OH

Wnt Reporter EC50: > 22.5 µM and ≤ 30 µM
B3: SEQ ID NO: 58 (peptide)
peptide: H-MSRMWFLISFWRG-OH

Wnt Reporter EC50: ≤ 7.5 µM
B4: SEQ ID NO: 451 (peptide)
peptide: WAESILKEHVQRVWG
HELM: PEPTIDE1{[CCCCCCCCCCCC(=O)[*:2]].W.[meA].E.S.I.L.K.E.H.V.Q.R.V.W.G.[am]}$PEPTIDE1,PEPTIDE1,4:R3-8:R3$$$V2.0
SMILES: CCCCCCCCCCCC(=O)N[C@@H](Cc1c[nH]c2ccccc12)C(=O)N(C)[C@@H](C)C(=O)N[C@H]1CCC(=O)NCCCC[C@@H](C(=O)N[C@@H](CCC(=O)O)C(=O)N[C@@H](Cc2c[nH]cn2)C(=O)N[C@H](C(=O)N[C@@H](CCC(N)=O)C(=O)N[C@@H](CCCNC(=N)N)C(=O)N[C@H](C(=O)N[C@@H](Cc2c[nH]c3ccccc23)C(=O)NCC(N)=O)C(C)C)C(C)C)NC(=O)[C@H](CC(C)C)NC(=O)[C@H]([C@@H](C)CC)NC(=O)[C@H](CO)NC1=O

Wnt Reporter EC50: ≤ 7.5 µM
B5: SEQ ID NO: 454 (peptide)
peptide: WAQKILNDHGQAV
HELM: PEPTIDE1{[CCCCCCCCCCCCCCCC(=O)[*:2]].W.[meA].Q.K.I.L.N.D.H.[O=C([C@@H](N[*:1])C1CCCCC1)[*:2]].Q.A.V.[am]}$PEPTIDE1,PEPTIDE1,5:R3-9:R3$$$V2.0
SMILES: CCCCCCCCCCCCCCCC(=O)N[C@@H](Cc1c[nH]c2ccccc12)C(=O)N(C)[C@@H](C)C(=O)N[C@@H](CCC(N)=O)C(=O)N[C@H]1CCCCNC(=O)C[C@@H](C(=O)N[C@@H](Cc2c[nH]cn2)C(=O)N[C@H](C(=O)N[C@@H](CCC(N)=O)C(=O)N[C@@H](C)C(=O)N[C@H](C(N)=O)C(C)C)C2CCCCC2)NC(=O)[C@H](CC(N)=O)NC(=O)[C@H](CC(C)C)NC(=O)[C@H]([C@@H](C)CC)NC1=O

Wnt Reporter EC50: > 7.5 µM and ≤ 15 µM
B6: SEQ ID NO: 398 (peptide)
peptide: Palmitoyl-GW[NMeW]E[αMeS]ILDEH[αMeV]QRVW-OH

Wnt Reporter EC50: ≤ 7.5 µM
B7: SEQ ID NO: 453 (peptide)
peptide: WAQKILNDHGQAV
HELM: PEPTIDE1{[CCCCCCCCCCCC(=O)[*:2]].W.[meA].Q.K.I.L.N.D.H.[O=C([C@@H](N[*:1])C1CCCCC1)[*:2]].Q.A.V.[am]}$PEPTIDE1,PEPTIDE1,5:R3-9:R3$$$V2.0
SMILES: CCCCCCCCCCCC(=O)N[C@@H](Cc1c[nH]c2ccccc12)C(=O)N(C)[C@@H](C)C(=O)N[C@@H](CCC(N)=O)C(=O)N[C@H]1CCCCNC(=O)C[C@@H](C(=O)N[C@@H](Cc2c[nH]cn2)C(=O)N[C@H](C(=O)N[C@@H](CCC(N)=O)C(=O)N[C@@H](C)C(=O)N[C@H](C(N)=O)C(C)C)C2CCCCC2)NC(=O)[C@H](CC(N)=O)NC(=O)[C@H](CC(C)C)NC(=O)[C@H]([C@@H](C)CC)NC1=O

Proliferation IC50, Endo cells: 15 µM
Proliferation IC50, Wnt dependent cells: 2.9 µM
Wnt Reporter EC50: > 7.5 µM and ≤ 15 µM
B8: SEQ ID NO: 396 (peptide)
peptide: Palmitoyl-W[NMeW]E[αMeS]ILDEH[αMeV]QRVWG-OH

Wnt Reporter EC50: > 7.5 µM and ≤ 15 µM
B9: SEQ ID NO: 397 (peptide)
peptide: Palmitoyl-W[NMeW]E[αMeS]ILDEH[αMeV]QRVW-OH

Wnt Reporter EC50: > 7.5 µM and ≤ 15 µM
B10: SEQ ID NO: 399 (peptide)
peptide: Palmitoyl-[βAla]W[NMeW]E[αMeS]ILDEH[αMeV]QRVW-OH
SMILES: CCCCCCCCCCCCCCCC(=O)NCCC(=O)N[C@@H](Cc1c[nH]c2ccccc12)C(=O)N(C)[C@@H](Cc1c[nH]c2ccccc12)C(=O)N[C@@H](CCC(=O)O)C(=O)N[C@@](C)(CO)C(=O)N[C@H](C(=O)N[C@@H](CC(C)C)C(=O)N[C@@H](CC(=O)O)C(=O)N[C@@H](CCC(=O)O)C(=O)N[C@@H](Cc1c[nH]cn1)C(=O)N[C@](C)(C(=O)N[C@@H](CCC(N)=O)C(=O)N[C@@H](CCCNC(=N)N)C(=O)N[C@H](C(=O)N[C@@H](Cc1c[nH]c2ccccc12)C(=O)O)C(C)C)C(C)C)[C@@H](C)CC

Wnt Reporter EC50: > 30 µM
B11: SEQ ID NO: 412 (peptide)
peptide: AEEDPQTILDDHLSRVLK
HELM: PEPTIDE1{[ac].[bAla].E.E.D.P.Q.T.I.L.D.D.H.L.S.R.V.L.K.[am]}$$$$V2.0
SMILES: CC[C@H](C)[C@H](NC(=O)[C@@H](NC(=O)[C@H](CCC(N)=O)NC(=O)[C@@H]1CCCN1C(=O)[C@H](CC(=O)O)NC(=O)[C@H](CCC(=O)O)NC(=O)[C@H](CCC(=O)O)NC(=O)CCNC(C)=O)[C@@H](C)O)C(=O)N[C@@H](CC(C)C)C(=O)N[C@@H](CC(=O)O)C(=O)N[C@@H](CC(=O)O)C(=O)N[C@@H](Cc1c[nH]cn1)C(=O)N[C@@H](CC(C)C)C(=O)N[C@@H](CO)C(=O)N[C@@H](CCCNC(=N)N)C(=O)N[C@H](C(=O)N[C@@H](CC(C)C)C(=O)N[C@@H](CCCCN)C(N)=O)C(C)C

Wnt Reporter EC50: ≤ 7.5 µM
B12: SEQ ID NO: 41 (peptide)
peptide: H-MSRMWFLISFWG-OH

Wnt Reporter EC50: > 7.5 µM and ≤ 15 µM
B13: SEQ ID NO: 61 (peptide)
peptide: H-MNRMWFLISFWG-OH

Wnt Reporter EC50: > 7.5 µM and ≤ 15 µM
B14: SEQ ID NO: 64 (peptide)
peptide: H-MSRVWFLISFWG-OH

Wnt Reporter EC50: ≤ 7.5 µM
B15: SEQ ID NO: 63 (peptide)
peptide: H-MSRMWFLFSFWG-OH

Wnt Reporter EC50: > 15 µM and ≤ 22.5 µM
B16: SEQ ID NO: 52 (peptide)
peptide: H-MSRMLFLISFWG-OH

Wnt Reporter EC50: > 30 µM
B17: SEQ ID NO: 70 (peptide)
peptide: H-MSRMWFLNSFWG-OH

Wnt Reporter EC50: > 30 µM
B18: SEQ ID NO: 65 (peptide)
peptide: H-MSRMWFPISFWG-OH

Wnt Reporter EC50: > 7.5 µM and ≤ 15 µM
B19: SEQ ID NO: 48 (peptide)
peptide: H-MSRTWFLISFWG-OH

Wnt Reporter EC50: ≤ 7.5 µM
B20: SEQ ID NO: 67 (peptide)
peptide: H-MGRMWFLISFWG-OH

Wnt Reporter EC50: > 30 µM
B21: SEQ ID NO: 59 (peptide)
peptide: H-MSRKWFLISFWG-OH

Wnt Reporter EC50: > 7.5 µM and ≤ 15 µM
B22: SEQ ID NO: 68 (peptide)
peptide: H-MSRMWFLISLWG-OH

Wnt Reporter EC50: > 30 µM
B23: SEQ ID NO: 50 (peptide)
peptide: MSRMAFLISFWG
HELM: PEPTIDE1{M.S.R.M.[meA].F.L.I.S.F.W.G}$$$$V2.0
SMILES: CC[C@H](C)[C@H](NC(=O)[C@H](CC(C)C)NC(=O)[C@H](Cc1ccccc1)NC(=O)[C@H](C)N(C)C(=O)[C@H](CCSC)NC(=O)[C@H](CCCNC(=N)N)NC(=O)[C@H](CO)NC(=O)[C@@H](N)CCSC)C(=O)N[C@@H](CO)C(=O)N[C@@H](Cc1ccccc1)C(=O)N[C@@H](Cc1c[nH]c2ccccc12)C(=O)NCC(=O)O

Wnt Reporter EC50: > 15 µM and ≤ 22.5 µM
B24: SEQ ID NO: 54 (peptide)
peptide: H-MSRMWFLISSWG-OH

Wnt Reporter EC50: > 7.5 µM and ≤ 15 µM
B25: SEQ ID NO: 56 (peptide)
peptide: H-MSRMWFLVSFWG-OH

Wnt Reporter EC50: > 7.5 µM and ≤ 15 µM
B26: SEQ ID NO: 60 (peptide)
peptide: H-MSRMWLLISFWG-OH

Wnt Reporter EC50: > 30 µM
B27: SEQ ID NO: 62 (peptide)
peptide: H-MSRMWFLTSFWG-OH

Wnt Reporter EC50: ≤ 7.5 µM
B28: SEQ ID NO: 55 (peptide)
peptide: H-MSRIWFLISFWG-OH

Proliferation IC50, Wnt dependent cells: 6.8 µM
Wnt Reporter EC50: > 7.5 µM and ≤ 15 µM
B29: SEQ ID NO: 395 (peptide)
peptide: {Stearoyl-GABA}-W[NMeW]E[αMeS]ILDEH[αMeV]QRVW-OH

Wnt Reporter EC50: > 7.5 µM and ≤ 15 µM
B30: SEQ ID NO: 394 (peptide)
peptide: Stearoyl-[βAla]W[NMeW]E[αMeS]ILDEH[αMeV]QRVW-OH
SMILES: CCCCCCCCCCCCCCCCCC(=O)NCCC(=O)N[C@@H](Cc1c[nH]c2ccccc12)C(=O)N(C)[C@@H](Cc1c[nH]c2ccccc12)C(=O)N[C@@H](CCC(=O)O)C(=O)N[C@@](C)(CO)C(=O)N[C@H](C(=O)N[C@@H](CC(C)C)C(=O)N[C@@H](CC(=O)O)C(=O)N[C@@H](CCC(=O)O)C(=O)N[C@@H](Cc1c[nH]cn1)C(=O)N[C@](C)(C(=O)N[C@@H](CCC(N)=O)C(=O)N[C@@H](CCCNC(=N)N)C(=O)N[C@H](C(=O)N[C@@H](Cc1c[nH]c2ccccc12)C(=O)O)C(C)C)C(C)C)[C@@H](C)CC
